Experimental data as given in PMC4148960, “Sox2 acts as a transcriptional repressor in neural stem cells” (BMC Neuroscience, 2014).

Biological target: T1, GST-fused Grg1 (UniProt Q62440 1-770)
T1 construct: Grg1 (groucho-related gene 1); cloned into pGEX4T1; No purification before mixing with Sox2 is described; the fusion was collected on glutathione-sepharose after the incubation; also called GST-Grg1; source: E. coli BL21, induced with IPTG, bacteria lysed
Experiment: pull-down; data not shown: amounts of radiolabelled Sox2 pulled down by GST-Grg1 and GST-Grg5 compared
Conditions: partners not purified

T1 sequence (Q62440 whole entry, the tested form may be a part): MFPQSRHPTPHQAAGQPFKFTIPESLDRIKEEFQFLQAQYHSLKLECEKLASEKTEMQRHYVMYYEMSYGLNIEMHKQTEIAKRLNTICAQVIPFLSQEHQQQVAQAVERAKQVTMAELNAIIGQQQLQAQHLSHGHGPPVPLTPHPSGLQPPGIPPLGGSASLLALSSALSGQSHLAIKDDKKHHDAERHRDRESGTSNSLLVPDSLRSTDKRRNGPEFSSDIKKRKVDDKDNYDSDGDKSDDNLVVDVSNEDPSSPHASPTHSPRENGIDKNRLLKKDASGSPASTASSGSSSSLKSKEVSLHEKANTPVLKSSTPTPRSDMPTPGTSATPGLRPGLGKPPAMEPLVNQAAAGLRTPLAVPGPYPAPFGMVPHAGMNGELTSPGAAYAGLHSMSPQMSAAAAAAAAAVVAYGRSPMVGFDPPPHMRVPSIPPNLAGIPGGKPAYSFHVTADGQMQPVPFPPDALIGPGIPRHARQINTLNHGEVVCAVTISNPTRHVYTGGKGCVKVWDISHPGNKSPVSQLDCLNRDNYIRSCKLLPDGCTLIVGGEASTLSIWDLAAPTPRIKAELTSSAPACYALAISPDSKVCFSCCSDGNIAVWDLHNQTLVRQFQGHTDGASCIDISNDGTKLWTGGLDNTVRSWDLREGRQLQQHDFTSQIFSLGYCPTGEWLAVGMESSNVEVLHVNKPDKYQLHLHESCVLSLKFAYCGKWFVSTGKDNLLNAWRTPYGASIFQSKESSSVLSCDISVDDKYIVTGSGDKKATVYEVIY

B1: radiolabelled Sox2 (in vitro translated) (natural protein)
chain: not shown
modifications: S^35-labelled
notes: Sox2, wild type; also called S^35-labelled Sox2; WT Sox2; source: in vitro translated (TNT T7 kit, Promega)
- fold more Sox2 pulled down than by Grg5: ~4 fold
